For 1 molecule, EC50 (read off the curve) results are on record in patent US20210403541A1.

This experiment deals with PD17(p)PS413 (24AWF) (human). Description: peptide-coated ELISA (1 µg/ml peptide 24AWF coat, anti-human IgG-HRP, ABTS, OD405).

B1: V5-AFM-hIgG4-S228P (antibody, V domains shown)
VH: EVQLVESGGGLVQPGGSLRLSCAASGFTFSSFALNWVRQAPGKGLEWVGHIRSKTNNYVTFYAASVKGRFTVSRDDSQNTAYLQMNSLKTEDTATYYCVRRGPRDSWFGYWGQGTLVTVSS
VL: DIVMTQSPLSLPVTLGEPASISCRSSQKIVHRNANTYLEWYLQKPGQSPQLLIYTVSNRFSGVPDRFSGSGSGTDFTLKISRVEAEDLGVYYCFQGSYLPLTFGGGTKVEIK
B1 returned an EC50 (read off the curve) of 0.05 µg/mL.
